These results are taken from paper PMC7324491, “Non-native proteins inhibit the ER oxidoreductin 1 (Ero1)–protein disulfide-isomerase relay when protein folding capacity is exceeded” (The Journal of Biological Chemistry, 2020).

Ends that are not written are not given here. * marks the point of attachment. Biotin = O=C1N[C@H]2[C@H](CS[C@H]2CCCCC(=O)*)N1

In assay [1] the target is T1, Ero1α–PDI (Homo sapiens, UniProt P07237).
T1 construct: gene P4HB; with ERO1-like protein alpha
Put plainly: oxygen consumption assay. The class given is biochemical. The conditions noted are these: pH 7.0, 50 μM inhibitor pre- or postactivation, 10 μM PDI, 10 mM GSH; control compound.

Assay [2] deals with T2, His-tagged mature protein disulfide-isomerase (PDI) (human, UniProt P07237 18-508).
T2 construct: protein disulfide-isomerase (PDI), human, mature protein, domains a, b, b', a'; calculated mass of the construct 56379 Da; Treated with 1 mM DTT before ITC and in the BLI assays with the β-hairpin
Kind of assay: BLI; biotin-labeled β-hairpin of Ero1α immobilised on SA biosensors; PDI at 0, 0.5, 1.0, 2.0, 4.0 μM; 30 °C; 20 mM sodium phosphate, pH 7.0, 300 mM NaCl, 1 mM DTT; 1:1 model. The conditions noted are these: both partners purified.

The target of assay [3] is T2, His-tagged mature protein …. Kind of assay: ITC; 600 μM KFWWFS injected into 27 μM PDI; 25 °C; 20 mM sodium phosphate, pH 7.0, 0.15 M NaCl; both treated with 1 mM DTT for 5 min before the measurement. Conditions: both partners purified. On the technique in general: Isothermal titration calorimetry measures the heat released or taken up as one component is titrated into another.

Assay [4] has the same target. Kind of assay: BLI; KFWWFS immobilised on AR2G biosensors; PDI at 0, 0.5, 1.0, 2.0 μM; 30 °C; 20 mM sodium phosphate, pH 7.0, 300 mM NaCl; 1:1 model, association and dissociation fitted separately. The conditions noted are these: both partners purified. In general terms: Biolayer interferometry detects binding as a change in optical thickness at a sensor tip.

T2 sequence (P07237 18-508): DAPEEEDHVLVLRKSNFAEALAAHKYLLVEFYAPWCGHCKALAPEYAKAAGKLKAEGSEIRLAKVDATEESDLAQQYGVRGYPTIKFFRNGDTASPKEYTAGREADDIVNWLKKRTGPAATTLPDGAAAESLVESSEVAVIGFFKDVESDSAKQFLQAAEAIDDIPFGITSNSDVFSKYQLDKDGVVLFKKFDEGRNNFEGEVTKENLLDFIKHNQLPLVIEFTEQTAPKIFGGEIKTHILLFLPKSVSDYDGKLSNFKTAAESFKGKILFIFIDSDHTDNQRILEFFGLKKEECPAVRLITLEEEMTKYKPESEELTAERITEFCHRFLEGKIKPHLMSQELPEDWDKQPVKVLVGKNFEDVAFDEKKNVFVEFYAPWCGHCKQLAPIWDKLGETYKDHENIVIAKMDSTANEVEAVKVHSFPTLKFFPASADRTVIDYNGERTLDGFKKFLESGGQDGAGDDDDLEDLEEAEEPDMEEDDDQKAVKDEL
T1 sequence (P07237 18-508): as above
T1 sequence (Q96HE7 24-468 partner): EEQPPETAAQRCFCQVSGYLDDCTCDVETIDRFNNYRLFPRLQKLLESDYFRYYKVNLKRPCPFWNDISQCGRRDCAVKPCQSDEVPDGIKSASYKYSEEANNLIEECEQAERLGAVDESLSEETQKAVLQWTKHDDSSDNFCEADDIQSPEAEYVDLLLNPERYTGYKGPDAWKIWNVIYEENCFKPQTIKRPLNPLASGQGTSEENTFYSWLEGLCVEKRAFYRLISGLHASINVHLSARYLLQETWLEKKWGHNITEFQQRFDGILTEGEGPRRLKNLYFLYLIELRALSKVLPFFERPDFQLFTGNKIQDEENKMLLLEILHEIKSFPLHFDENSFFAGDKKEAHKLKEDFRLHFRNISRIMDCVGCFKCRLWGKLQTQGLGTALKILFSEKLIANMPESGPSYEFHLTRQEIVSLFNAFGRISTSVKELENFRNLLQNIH

For the molecule `C[C@]12CC[C@@H]3c4ccc(O)cc4CC[C@H]3[C@@H]1CC[C@H]2O` [17α-estradiol], the “inhibition at 50 μM” value in assay [1] is “it inhibited both activation and catalytic turnover, but only marginally”.

B1: β-hairpin of Ero1α (RYLLQETWLEKKWGH) with an N-terminal biotin label (peptide)
peptide: Biotin-RYLLQETWLEKKWGH
notes: protruding β-hairpin of human ER oxidoreductin 1 alpha (Ero1α), with a tryptophan at the tip (Trp272); also called β-hairpin loop of Ero1α; source: synthetic peptide, synthesized by GenScript
By Kd is commonly meant the free concentration of one partner at which half of the binding sites on the other are occupied at equilibrium, for simple one-to-one binding. High values mean a looser complex, low ones a tighter complex. B1 returned a Kd in assay [2] of 4 µM.

B2: peptide KFWWFS (peptide)
peptide: KFWWFS
notes: model peptide without cysteine that mimics the exposed hydrophobic core of protein substrates; Immobilised on AR2G biosensors for BLI; also called model peptide; source: lyophilized peptide dissolved in 10 mM HCl
As a reminder, the stoichiometry N is a count of units in the complex or per binding partner. As to B2, in assay [3], the Kd turned out to be 6.8 µM and the “stoichiometry N” value was determined as 0.97. The molecule further came in with a Kd in assay [4] of 12.7 µM.
